Reference: patent US20250114450A1, “PHARMACEUTICAL COMBINATION CONTAINING ANTI-PD-1-ANTI-VEGFA BISPECIFIC ANTIBODY, AND USE THEREOF” (Akeso Biopharma, Inc., priority 2021, published 2025)

Tests used:
FcγRIIIa_F158 = FcγRIIIa_F158 (Homo sapiens, UniProt P08637); assay: Affinity constant assay to FcγRIIIa_F158 (Fortebio Octet); conditions: FcγRIIIa_F158 immobilized on HIS1K sensor, antibody 31.25-500 nM, 30° C., 1:1 model; N/A = no binding or extremely weak binding signal
Description: 5 μg/mL FcγRIIIa_F158 was immobilized on the HIS1K sensor for 120 s. The sensor was equilibrated in a buffer for 60 s, and the binding of the immobilized hFcGR3A(F158)-his on the sensor to the antibodies at concentrations of 31.25-500 nM (serial two-fold dilution) was determined for 60 s. The antibody was dissociated in the buffer for 60 s. The sensor was refreshed 4 times in 10 mM glycine pH 1.5, each for 5 s. The detection temperature was 30° C. and the frequency was 0.3 Hz. The data were analyzed by 1:1 model fitting to obtain affinity constants.

FcγRIIa_H131 = target: T1, FcγRIIa_H131 (Homo sapiens, UniProt P12318); assay: Affinity constant assay to FcγRIIa_H131 (Fortebio Octet); conditions: FcγRIIa_H131 immobilized on NTA sensor, antibody 12.5-200 nM, 30° C., 1:1 model; N/A = no binding or extremely weak binding signal
T1 sequence (P12318 34-217 limits assumed): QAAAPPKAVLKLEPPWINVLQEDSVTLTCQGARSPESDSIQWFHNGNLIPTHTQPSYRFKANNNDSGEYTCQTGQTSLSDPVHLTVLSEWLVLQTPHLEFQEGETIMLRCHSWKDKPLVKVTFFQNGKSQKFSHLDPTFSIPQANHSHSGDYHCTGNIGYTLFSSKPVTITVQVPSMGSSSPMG
Description: The antibody was dissociated in the buffer for 60 s. The sensor was refreshed in 10 mM glycine pH 1.7 and 10 nM nickel sulfate. […] The data were analyzed by 1:1 model fitting to obtain affinity constants.

C1q = C1q (Homo sapiens, UniProt P02745+P02746+P02747); assay: Affinity constant assay to C1q (Fortebio Octet); conditions: antibody immobilized on FAB2G sensor, C1q 0.625-10 nM, 30° C., 1:1 model; N/A = no binding or extremely weak binding signal
Description: 50 μg/mL antibody was immobilized on the FAB2G sensor at an immobilization height of about 2.0 nm. […] The antigen and antibody were dissociated in the buffer for 60 s. The sensor was refreshed 4 times in 10 mM glycine pH 1.7, each for 5 s. The shaking speed of the sample plate was 1000 rpm, the temperature was 30° C. and the frequency was 0.6 Hz. The data were analyzed by 1:1 model fitting to obtain affinity constants. The data acquisition software was Fortebio Data Acquisition 7.0, and the data analysis software was Fortebio Data Analysis 7.0.

[1] = test system: CHO-K1-PD1 cells overexpressing PD-1; assay: ADCP activity assay, murine macrophages and CHO-K1-PD1 cells, flow cytometry; format: cell-based; conditions: murine macrophages + CHO-K1-PD1-CFSE cells, antibody 10, 1 and 0.1 μg/mL, 2 h, vs isotype control; FIG. 35
Description: The method is as follows:
The femoral bone marrow of C57 mice (purchased from Guangdong Medical Laboratory Animal Center) was first aseptically collected and lysed by erythrocyte lysis buffer on ice for 5 min. The lysis was terminated with DMEM complete medium (containing 10% FBS), and the lysate was centrifuged at 1000 rpm and washed twice. The cell pellet was resuspended in 10 mL of DMEM complete medium and M-CSF was added at a working concentration of 100 ng/mL. The cells were cultured for 7 days at 37° C. and 5% CO2 in a cell culture chamber for induction. Half of the medium was exchanged and M-CSF was added on Days 3 and 5. The induction of cells was completed on day 7. […] The supernatant was discarded and the cells were suspended in DMEM complete medium (containing 10% FBS) and counted. […] CHO-K1-PD1 cells were collected by conventional methods, centrifuged at 170×g for 5 min, resuspended, counted, analyzed for viability and washed once with PBS. […] The cells were counted, transferred to a 96-well plate and centrifuged at 1000×g for 5 min, and the supernatant was discarded. […]
Macrophages in the system were APC^+ positive, and macrophages involved in phagocytosis were APC and CFSE dual positive. The phagocytosis rate was determined as the ratio of the number of dual positive cells to the number of APC positive cells, and the antibody-mediated ADCP activity was evaluated. […]

FcγRI = FcγRI (Homo sapiens, UniProt P12314); assay: Affinity constant assay to FcγRI (Fortebio Octet); conditions: N/A = no binding or extremely weak binding signal
Description: 1 μg/mL FcγRIa was immobilized on the HIS1K sensor for 50 s. The sensor was equilibrated in a buffer for 60 s, and the binding of the immobilized CD64 on the sensor to the antibodies at concentrations of 3.12-50 nM (two-fold dilution) was determined for 120 s. The antibody was dissociated in the buffer for 120 s. The sensor was refreshed 4 times in 10 mM glycine pH 1.5, each for 5 s. The detection temperature was 30° C. and the frequency was 0.3 Hz. The data were analyzed by 1:1 model fitting to obtain affinity constants.

[2] = test system: SK-OV-3 human ovarian cancer cells; format: in vivo; conditions: VP101(hG1DM) 14 mg/kg weekly, olaparib 100 mg/kg daily, alone or in combination; FIG. 41
Source text: 39 days after grafting, the mice were intraperitoneally injected with 3 million activated PBMCs and randomly divided into 4 groups of 6 animals by tumor volume. The day of grouping was defined as D0, and dosing was started on the day of grouping D0. The regimen of the combination therapy group is as follows: the drugs were formulated separately and administered sequentially (no certain order or time interval was required, and one treatment should be given after the completed administration of the other). After the administration, the length and width of tumors in each group were measured, and the tumor volume was calculated.

[3] = test system: MDA-MB-231 cells (human breast cancer cells); format: in vivo; conditions: VP101(hG1DM) 3 mg/kg weekly, olaparib 50 mg/kg daily, alone or in combination; FIG. 39
Source text: 23 days after grafting, the mice were randomly divided into 4 groups of 6 animals by tumor volume. The day of grouping was defined as DO, and olaparib dosing was started on day D0. […] The regimen of the combination therapy group is as follows: the drugs were formulated separately and administered sequentially (no certain order or time interval was required, and one treatment should be given after the completed administration of the other). After the administration, the length and width of tumors in each group were measured, and the tumor volume was calculated.

Chain of FcγRI (P12314 16-374): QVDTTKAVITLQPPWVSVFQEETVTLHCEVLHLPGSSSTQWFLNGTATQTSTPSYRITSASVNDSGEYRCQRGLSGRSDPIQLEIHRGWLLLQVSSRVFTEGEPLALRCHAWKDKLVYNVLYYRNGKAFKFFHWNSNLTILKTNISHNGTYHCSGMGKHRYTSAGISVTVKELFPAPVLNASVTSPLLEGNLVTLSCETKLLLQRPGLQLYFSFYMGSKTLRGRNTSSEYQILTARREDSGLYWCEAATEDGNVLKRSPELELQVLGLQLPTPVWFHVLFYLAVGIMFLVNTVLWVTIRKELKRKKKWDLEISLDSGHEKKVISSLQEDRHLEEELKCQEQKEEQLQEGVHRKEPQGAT
Chain of FcγRIIIa_F158 (P08637 17-208 limits assumed): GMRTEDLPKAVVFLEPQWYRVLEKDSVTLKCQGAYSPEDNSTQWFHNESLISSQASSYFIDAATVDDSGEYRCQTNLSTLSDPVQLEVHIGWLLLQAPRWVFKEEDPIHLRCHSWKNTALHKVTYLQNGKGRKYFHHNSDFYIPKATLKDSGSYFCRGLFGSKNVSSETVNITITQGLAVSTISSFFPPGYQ
Chain of C1q (P02745 23-245): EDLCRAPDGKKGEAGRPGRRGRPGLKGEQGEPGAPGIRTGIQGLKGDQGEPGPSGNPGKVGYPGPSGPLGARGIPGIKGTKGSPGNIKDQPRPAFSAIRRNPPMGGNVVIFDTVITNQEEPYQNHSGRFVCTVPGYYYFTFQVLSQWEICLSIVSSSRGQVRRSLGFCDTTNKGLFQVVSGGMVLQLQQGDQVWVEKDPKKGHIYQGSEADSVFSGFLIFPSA
Chain of C1q (P02746 28-253): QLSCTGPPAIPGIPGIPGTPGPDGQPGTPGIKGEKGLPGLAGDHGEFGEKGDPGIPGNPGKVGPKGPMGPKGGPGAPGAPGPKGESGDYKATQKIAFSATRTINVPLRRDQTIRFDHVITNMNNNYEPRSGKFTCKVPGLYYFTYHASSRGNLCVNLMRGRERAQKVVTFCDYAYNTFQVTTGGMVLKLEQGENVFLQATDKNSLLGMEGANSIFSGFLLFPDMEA
Chain of C1q (P02747 29-245): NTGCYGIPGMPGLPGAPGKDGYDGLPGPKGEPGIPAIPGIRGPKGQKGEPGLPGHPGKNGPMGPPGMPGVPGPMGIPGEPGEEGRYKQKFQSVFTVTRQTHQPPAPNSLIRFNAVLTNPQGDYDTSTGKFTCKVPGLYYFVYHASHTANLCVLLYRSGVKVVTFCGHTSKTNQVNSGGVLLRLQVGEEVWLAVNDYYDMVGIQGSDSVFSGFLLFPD

| Molecule | KD (affinity constant) to FcγRIIIa_F158 (FcγRIIIa_F158) | KD (affinity constant) to FcγRIIa_H131 (FcγRIIa_H131) | KD (affinity constant) to C1q (C1q) | ADCP activity (phagocytic rate, P %) [1] | Kd (FcγRI; FcγRIa immobilized on HIS1K sensor, antibody 3.12-50 nM, 30° C., 1:1 model) | Rmax to FcγRI (FcγRI) | kdis to FcγRI (FcγRI) | tolerability / body weight of tumor-bearing mice [2] | tolerability / body weight of tumor-bearing mice [3] |
| --- | --- | --- | --- | --- | --- | --- | --- | --- | --- |
| Nivolumab: approved PD-1 antibody (Opdivo) purchased from BMS as a reference antibody | no binding or an extremely weak binding signal | no binding or an extremely weak binding signal | no binding or an extremely weak binding signal | significant ADCP effect | 6.2 nM | 0.48-0.53 nm | 0.00432 s⁻¹ | – | – |
| O=C(c1cc(Cc2n[nH]c(=O)c3ccccc23)ccc1F)N1CCN(C(=O)C2CC2)CC1 [olaparib] | – | – | – | – | – | – | – | no effect on the body weight | no effect on the body weight |
